Measurements published in patent US20030073808.

What was measured:
[1] = system: ChePep-1 (PSDE coupled with the peptide having SEQ ID No. 4)
[2] = system: ChePep-2 (IDA coupled with a peptide having SEQ ID No. 5)
[3] = system: ChePep-3 (PSDE combined with a peptide having SEQ ID No. 6)
[4] = system: ChePep-5 (AFTA combined with a peptide having SEQ ID No. 7)
[5] = system: ChePep-6 (AFTA combined with a peptide having SEQ ID No. 8)

Substance: Active MMP-9 enzyme
- hydrolysis of fluoresceinated collagen by MMP-9 [1]: prevents the enzyme from degrading fluoresceinated collagen in a dose dependent manner
- FRET substrate peptide cleavage by MMP-9 [2]: regulates MMP-9 in the fluorescence resonance energy transfer (FRET) assay in a dose dependent manner
- FRET substrate peptide cleavage by MMP-9 [3]: show nearly identical ability to regulate MMP-9 in the standard FRET assay
- FRET substrate peptide cleavage by MMP-9 [4]: ChePep-5 proves to be a better regulator than the IDA or the PSDE based chelating peptides
- FRET substrate peptide cleavage by MMP-9 [5]: ChePep-6 is an effective MMP-9 regulator at low molar stoichiometries
